For one test, the system named is OMP-LU02 lung tumor. Briefly: OMP-LU02 NSCLC xenograft, OMP-18R5 vs control antibody. Type of test: in vivo, NOD/SCID mice. Conditions: OMP-LU02 adenocarcinoma; 15-20 mg/kg intraperitoneally weekly; tumor volume vs control antibody. An excerpt: (§1) The non-small cell lung cancer (NSCLC) tumor xenograft models OMP-LU02, OMP-LU11, OMP-LU24, OMP-LU25, OMP-LU33, OMP-LU45, and OMP-LU56 (and other OncoMed models described herein) were established at OncoMed Pharmaceuticals from minimally passaged, patient-derived tumor specimens. The tumor specimens were examined by a pathologist and classified as lung tumors. OncoMed relies on these classifications unless further analyses are done on any specific tumor and a reclassification is deemed necessary. […] Tumor-bearing mice were randomized into groups (n=8-10 per group) and treated with control antibody or anti-FZD antibody OMP-18R5. The antibodies were dosed at 15-20 mg/kg and were administered intraperitoneally on a weekly basis. […] Data are expressed as mean±S.E.M.
(§2) To determine if a tumor was responsive to anti-FZD antibody OMP-18R5, tumor volume data from mice treated with the control antibody were compared with tumor volume data from mice treated with OMP-18R5.

The test system of a further test is OMP-LU25 lung tumor. The test can be described thus: OMP-LU25 NSCLC xenograft, OMP-18R5 vs control antibody. The following applies: OMP-LU25 large cell carcinoma; 15-20 mg/kg intraperitoneally weekly; tumor volume vs control antibody. Type of test: in vivo, NOD/SCID mice.
From the text: as §1, §2

In test [1] the test system is genes in the Wnt, Notch, and stem cell pathways; Wnt pathway target genes including AXIN2 and LEF1. The test can be described thus: pharmacodynamics (PD) biomarker analysis. The class given is in vivo. The following applies: data not shown. The method, then: In addition, a pharmacodynamics (PD) biomarker analysis was performed and confirmed inhibition of genes in the Wnt. Notch, and stem cell pathways by treatment with OMP-18R5.

A further test has as its system OMP-LU33 lung tumor. The test can be described thus: OMP-LU33 NSCLC xenograft, OMP-18R5 vs control antibody. Type of test: in vivo, NOD/SCID mice. The following applies: OMP-LU33 carcinoma; 15-20 mg/kg intraperitoneally weekly; tumor volume vs control antibody.
From the text: as §1, §2

For the next test, the system named is OMP-LU45 lung tumor. Briefly: OMP-LU45 NSCLC xenograft, OMP-18R5 vs control antibody. Type of test: in vivo, NOD/SCID mice. Conditions: OMP-LU45 adenocarcinoma; 15-20 mg/kg intraperitoneally weekly; tumor volume vs control antibody.
From the text: as §1, §2

The subject of another test is OMP-LU24 lung tumor. The test can be described thus: OMP-LU24 NSCLC xenograft, OMP-18R5 vs control antibody. The class given is in vivo, NOD/SCID mice. Conditions: OMP-LU24 squamous cell carcinoma; 15-20 mg/kg intraperitoneally weekly; tumor volume vs control antibody.
From the text: as §1, §2

The test system of a further test is OMP-LU56 lung tumor. Briefly: OMP-LU56 NSCLC xenograft, OMP-18R5 vs control antibody. Conditions: OMP-LU56 carcinoma; 15-20 mg/kg intraperitoneally weekly; tumor volume vs control antibody. The class given is in vivo, NOD/SCID mice.
From the text: as §1, §2

The next test deals with OMP-LU11 lung tumor. The test can be described thus: OMP-LU11 NSCLC xenograft, OMP-18R5 vs control antibody. Type of test: in vivo, NOD/SCID mice. Conditions: OMP-LU11 squamous cell carcinoma; 15-20 mg/kg intraperitoneally weekly; tumor volume vs control antibody.
From the text: as §1, §2

B1: OMP-18R5: anti-FZD IgG2 antibody binding FZD1, FZD2, FZD5, FZD7, FZD8; ATCC deposit PTA-9541; heavy/light chain SEQ ID NO:11 and 12 (antibody)
heavy: EVQLVESGGGLVQPGGSLRLSCAASGFTFSHYTLSWVRQAPGKGLEWVSVISGDGSYTYYADSVKGRFTISSDNSKNTLYLQMNSLRAEDTAVYYCARNFIKYVFANWGQGTLVTVSSASTKGPSVFPLAPCSRSTSESTAALGCLVKDYFPEPVTVSWNSGALTSGVHTFPAVLQSSGLYSLSSVVTVPSSNFGTQTYTCNVDHKPSNTKVDKTVERKCCVECPPCPAPPVAGPSVFLFPPKPKDTLMISRTPEVTCVVVDVSHEDPEVQFNWYVDGVEVHNAKTKPREEQFNSTFRVVSVLTVVHQDWLNGKEYKCKVSNKGLPAPIEKTISKTKGQPREPQVYTLPPSREEMTKNQVSLTCLVKGFYPSDIAVEWESNGQPENNYKTTPPMLDSDGSFFLYSKLTVDKSRWQQGNVFSCSVMHEALHNHYTQKSLSLSPGK
light: DIELTQPPSVSVAPGQTARISCSGDNIGSFYVHWYQQKPGQAPVLVIYDKSNRPSGIPERFSGSNSGNTATLTISGTQAEDEADYYCQSYANTLSLVFGGGTKLTVLGQPKAAPSVTLFPPSSEELQANKATLVCLISDFYPGAVTVAWKADSSPVKAGVETTTPSKQSNNKYAASSYLSLTPEQWKSHRSYSCQVTHEGSTVEKTVAPTECS
modifications: Heavy chain amino acid sequence; Light chain amino acid sequence
As to B1, the Classification entry is “Non-responder” with OMP-LU02 lung tumor; “Non-responder” in the test on OMP-LU25 lung tumor; “Responder” with OMP-LU33 lung tumor; “Non-responder” with OMP-LU45 lung tumor; “Responder” in the test with OMP-LU24 lung tumor; “Non-responder” in the test with OMP-LU56 lung tumor. Also, the Classification entry in the test with OMP-LU11 lung tumor is on record as “Responder”. Moreover, the “Wnt pathway target genes including AXIN2 and LEF1” value in test [1] (OMP-18R5 as a single agent) is recorded as “down-regulated significantly”. Moreover, the “genes in the Wnt, Notch, and stem cell pathways” value in test [1] (treatment with OMP-18R5) is given as “inhibition”.

These data come from patent US20180223372A1, “IDENTIFICATION OF PREDICTIVE BIOMARKERS ASSOCIATED WITH WNT PATHWAY INHIBITORS” (OncoMed Pharmaceutical, Inc., priority 2015, published 2018).
